Key:
[1] = target: T1, CHD1 peptide EGRRSRSRRYSG (SEQ ID NO:205) (not fully specified)
T1 chain: EGRRSRSRRYSG

[2] = target: T2, MAST3 peptide ARRSKRSRRRET (SEQ ID NO:183) (not fully specified)
T2 chain: ARRSKRSRRRET

[3] = target: T3, beta-arrestin2 peptide HKRNSVRLVIR (SEQ ID NO:191) (not fully specified)
T3 chain: HKRNSVRLVIR

[4] = target: T4, DOCK2 peptide VKLRRSKKRTKR (SEQ ID NO:170) (not fully specified)
T4 chain: VKLRRSKKRTKR

[5] = target: T5, serine/threonine-protein kinase PRP4 peptide TKKRSKSRSKER (SEQ ID NO:215) (not fully specified)
T5 chain: TKKRSKSRSKER

[6] = target: T6, CLK2 peptide RRRRSRTFSRS (SEQ ID NO:178) (not fully specified)
T6 chain: RRRRSRTFSRS

[7] = target: T7, serine/threonine-protein kinase PRP4 peptide GRRRRSRSKVK (SEQ ID NO:189) (not fully specified)
T7 chain: GRRRRSRSKVK

[8] = target: T8, CLK3 peptide RWKRRRSYSREH (SEQ ID NO:196) (not fully specified)
T8 chain: RWKRRRSYSREH

[9] = target: T9, myosin IF peptide KKERRRNSINRN (SEQ ID NO:174) (not fully specified)
T9 chain: KKERRRNSINRN

[10] = target: T10, absent in melanoma 1 peptide RSGRRRGSQKS (SEQ ID NO:173) (not fully specified)
T10 chain: RSGRRRGSQKS

[11] = target: T11, peptide EEAEHKATKARLADK (SEQ ID NO:75) (not fully specified)
T11 chain: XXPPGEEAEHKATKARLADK

B1: PKC-theta (protein)
chain: MSPFLRIGLSNFDCGSCQSCQGEAVNPYCAVLVKEYVESENGQMYIQKKPTMYPPWDSTFDAHINKGRVMQIIVKGKNVDLISETTVELYSLAERCRKNNGKTEIWLELKPQGRMLMNARYFLEMSDTKDMNEFETEGFFALHQRRGAIKQAKVHHVKCHEFTATFFPQPTFCSVCHEFVWGLNKQGYQCRQCNAAIHKKCIDKVIAKCTGSAINSRETMFHKERFKIDMPHRFKVYNYKSPTFCEHCGTLLWGLARQGLKCDACGMNVHHRCQTKVANLCGINQKLMAEALAMIESTQQARCLRDTEQIFREGPVEIGLPCSIKNEARPPCLPTPGKREPQGISWESPLDEVDKMCHLPEPELNKERPSLQIKLKIEDFILHKMLGKGSFGKVFLAEFKKTNQFFAIKALKKDVVLMDDDVECTMVEKRVLSLAWEHPFLTHMFCTFQTKENLFFVMEYLNGGDLMYHIQSCHKFDLSRATFYAAEIILGLQFLHSKGIVYRDLKLDNILLDKDGHIKIADFGMCKENMLGDAKTNTFCGTPDYIAPEILLGQKYNHSVDWWSFGVLLYEMLIGQSPFHGQDEEELFHSIRMDNPFYPRWLEKEAKDLLVKLFVREPEKRLGVRGDIRQHPLFREINWEELERKEIDPPFRPKVKSPFDCSNFDKEFLNEKPRLSFADRALINSMDQNMFRNFSFMNPGMERLIS
Question: B1 was tested. Which in vitro phosphorylation (% of best substrate) [1] did it give?
Answer: 22

Question: What about the in vitro phosphorylation (% of best substrate) [2] of the same protein?
Answer: 55

Question: What about the in vitro phosphorylation (% of best substrate) [3] of the same protein?
Answer: 38

Question: What about the in vitro phosphorylation (% of best substrate) [4] of the same protein?
Answer: 98

Question: What about the in vitro phosphorylation (% of best substrate) [5] of the same protein?
Answer: 12

Question: And the in vitro phosphorylation (% of best substrate) [6]?
Answer: 65

Question: And the in vitro phosphorylation (% of best substrate) [7]?
Answer: 43

Question: And the in vitro phosphorylation (% of best substrate) [8]?
Answer: 32

Question: What about the in vitro phosphorylation (% of best substrate) [9] of the same protein?
Answer: 83

Question: And the in vitro phosphorylation (% of best substrate) [10]?
Answer: 85

Question: What about the Peptide phosphorylation by PKC-theta [11] of the same protein?
Answer: 0

From patent US20050064507
